According to publication PMC7544229, “Periphilin self-association underpins epigenetic silencing by the HUSH complex” (Nucleic Acids Research, 2020):

T1: TASOR fragment (residues 1014–1095) (human, UniProt Q9UK61-1 1014-1095)
T1 construct: codon-optimized synthetic gene; untagged; Residues 1055–1071 are disordered in the crystal structure; also called untagged TASOR fragment; minimal core TASOR; source: E. coli BL21 (DE3), co-expressed with His6-Periphilin fragments from pRSF-Duet, co-purified with Periphilin
T1 sequence (looked up): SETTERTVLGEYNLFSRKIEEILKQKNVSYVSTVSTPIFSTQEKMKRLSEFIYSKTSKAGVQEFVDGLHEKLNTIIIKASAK


Key:
[1] = molecular target: T1, TASOR fragment (residues 1014–1095); experiment: SEC-MALS; minimal Periphilin-TASOR core complex; Superdex 200 10/300 in PBS, 293 K, 0.5 ml/min; settings: both partners purified
[2] = molecular target: the molecule itself; experiment: crystal structure; Periphilin 292–367 with TASOR 1014–1095; sitting drop, 18°C, 0.1 M citrate pH 4.5, 1 M ammonium sulfate; SAD phasing with Br; refined at 2.5 Å
[3] = molecular target: T1, TASOR fragment (residues 1014–1095); experiment: native MS; non-denaturing mass spectrometry of the His6-Periphilin 285–374 / TASOR 1014–1095 complex; conditions not shown; settings: both partners purified

Row | stoichiometry N [1] [Periphilin per TASOR] | stoichiometry N [3] [Periphilin per TASOR] | Binder | binding result [2]
1 | 2 | – | Periphilin fragment (residues 292–367) (domain or fragment, human, UniProt Q8NEY8-2 292-367, looked up, codon-optimized synthetic gene; preceded by a His6 tag and a TEV site (ENLYFQG), digested with TEV protease; Two copies of this chain form a homodimer in the 2:1 complex with TASOR; A residue of the TEV site (G) may remain at the N-terminus after cleavage; not shown: His6, N-terminal, cleaved) SQLTTRSKAIASKTKEIEQVYRQDCETFGMVVKMLIEKDPSLEKSIQFALRQNLHEIGERCVEELKHFIAEYDTST | binds
2 | – | 2 | His6-tagged Periphilin residues 285–374 (domain or fragment, human, UniProt Q8NEY8-2 285-374, looked up, codon-optimized synthetic gene; Construct used for NMR and native mass spectrometry of the Periphilin-TASOR complex; not shown: His6, N-terminal, kept) GIELFEDSQLTTRSKAIASKTKEIEQVYRQDCETFGMVVKMLIEKDPSLEKSIQFALRQNLHEIGERCVEELKHFIAEYDTSTQDFGEPF | –
